According to the DeepSol protein solubility set:

Assay: soluble on expression in E. coli; label from the status in PepcDB or PDB records

Soluble on expression in E. coli, not soluble:
MGSDKIHHHHHHMVAIEKGGARLVFAPEVGGAVAAFTVDGREVLRPTAPQVDDALLTANFPLVSFCNRIPNGRFEWRGTSVTLPPNLEGHPHPLHGQGWRMPWAVEAIETDRALLVFEHPAGDWPWAYRAEQAFTLSETGFRVTLTVINTGEEDMPAGLGFHPYFPARPGERLAAQNDGVWLIDEDVLPTVRHAGRWGPDWAVGAPVAGHALIDHCYTGWNQRAVLSAPGRPDTVITASPDCAWLHVYAPPGEGYYCVEPCASRPNPFGEGETGMVTLCPGERRSIWMEIATG
MGSDKIHHHHHHMVDFNNTLESAVKSVLKWEEKQIITETTIIRDVQGKVSLFLKSEQKATESDISNLEEILQNDLNGFFTGKIFWEKCDKKDKLRIEIIKSIIEESREEWKTEDGVDFYICERPIAKKAWVNATQDVEPVWQYQEAECSNKAKVVTFYSFKGGMGRTTALAGIALNLIEQNKNVMMIDMDIEAPGLSTLFFDDIVVEKGLLDYLIERPLNEQCDIHDYVLEVTDPALLKENDGNLYLMPAGKVDETYLQKLARIDYQDNRENNLKSSIKNLLEKLDNTYHPDYILIDARAGFHDMGGIAVAQIPHGAVLIGNGSKQSWDGMTQVIRTIAKGNTEEFSIMIVDSMCERATAERAIEQRKKFLNMAYTVCMENYYNEDQVMPGIDAEGVEHQPEYIPYDSELMQGFELFSDGYNDSEIRVQAYRDLLTGSAYKDITKRIQSWFGE
MGSDKIHHHHHHMVEAQRVKEDEDAIRQALASLKNATGIPVTMYASVQSDSRLLINQWVGLRTPALQNLIIDNGVGVGGRVLKTRRPVGVSDYTRANVISHDLDPVIQDEGLHSIVAVPVIVQREVRGVLYVGVHSPVRLGDKVIEEVTMTARVLEQELAINSASRRSDNPRGGVAKQGRMMNGAEWEQIRSTHSKLRMLANRIEQEELRQELEELCDQMVAPVHVKQTTKLSARELDVLSCVALGHTNVEAAEEMGIGAETVKSYLRSVMRKLGAHTRYEAVNAARRIGALP
MGSDKIHHHHHHMVIELKNEKVTVQFKEFGGALSSIKDQDGIEYLWQGNPAYWSSQAPVLFPICGSLRNDKGIYTSKKHSHRYGSIPRHGLVRKKNFRFEQLGKDSVVFTITPDKEMLMQYPYHFELKIIYTLKHTTIRTEYQVINKEKESIMPYFIGGHPGLNCPLFAGDRYEDYYLEFEKEETCTVPKSFPDTGLLDLQDRKIFLKGQKYLDLDYSLFTHDAITLDNLQSRSVSLRSKNHGGGLRLDFADFPYLILWSTANKSPFIALEPWSGLSTAVDESDYFEEKRNVSFVEPGQFDRNYFDITVL
MGSDKIHHHHHHMVKGLDMIFYLHGFDATSPGNHEKMRQLQFIDPDVRLLSYSTLHPKHDMQHLLKEVAKQMQHTDDPEPLMVGVGLGAYWAERIGFLNGLKSVLINPNLHPENNMQGKIDRPEEYADIASKCVSEFRLKNTHRAMCIFSVNDDVLDCKANAQELSEYYAIEWDDVQPHKFPQLAAHLPKIKAFKLA
MGSDKIHHHHHHMVLQHYFRHYCRSFCSPDDKALFMQCSRLTQVDFDQLTLGAQVLEADSHGAKVYLLTDGNFLKVFRRKRLISSALLRPYSQRFVDNAARLAQLGIPTLEVISQHKLDLPGRTAVLYRPLPGRTLLQMSRDDGFSWDTYLPRLIELIRQLHRSGVYFRSLHLGNVVVTPDQRLGLIDVADMRFLRPPLSARMIRRNVQHMVRYIERENLGDRFPLAAFEAALLTR
MGSDKIHHHHHHMVLSKFMPHNPKFAAKFAEAAQNAHATAQALVDLLENYTDVERKVQRVLDFEHEGDRITSEVTNLLAESFIVPFDREDILALNAELDDLVDDMEEAASKLSLYRIERPLPQMAQLARVVEQQCALLAQGMPLIEDGRMVDELRQLSQKIRALEDEGDRISDEVARHLYDGVTEVPQMIVAMRSGEILNLIENASDQAQRIARTVESILLKNA
MGSDKIHHHHHHMVMNRSSLDGFFDPSYLENILGNFTQATGLRIEAVNYRGETFSIPGSLDRSPFCQCIRNNPQGNKRCIDSYKRATSEAVKWDEPYFFRCHAGLVIWAVPILSKDITLGSIICGQVLLWKPDRFFIQELQDISKGLKIDPEELNQAVPNLSIISADQAQAAANLLFVVVSHILKNNLRALEEEKAYKVLQQQLHDQILKRKKGPRRTDISYESILKDERRFLQYIRLGDKSRAFATLENLIIKIYTKSTGEPQLAKDRIVELAALTSRAAVEGGSDAEQAVTILSSFYKKLENMERVEEIIYFIKQIVDEFLENIFILADKKHLSLVKDARSFILHNHAQPLTIADAAQHLFISPSHLSRLFRQQLDCTFNDYLTRVRVEKAVELLKKPEFSVKDVALAVGFQNQSHFAKVFRKYIGVTPLVYRNSLF
MGSDKIHHHHHHMVRIALDPTPFHHDYDLLDFPDVTARLGYEYMQLTPHVDFGPFFRHPKADDDLVAALKKRAKDAGVTIPALLPVQRISWPEETQRVAAVRNIKRIIQLAVDLEVDTLNTEFSGRPERSEDSEDAFYRSMEELLPILEKEGIKFNIDPHPDDFVENGIEAWRVIRGLNSKQVGFVYVAPHSFHMGDQAEAILPAVGDRLGAVYLSDTFDHHKSHGLRYITNPPGNAVRVHQHLKIGDGDVNFEEIFSLLRSTGYLDREDALLVSNVFAEDEAADEVSRYQLEKIRSLIENA
MGSDKIHHHHHHMVRMEEPAVKQGFLHLQQQQTFGKKWRRFAAVLYGESGCALARLELQDVPEKTRRGEATRKVVRLSDCLRVAEVGSEASSPRDTSAFILETKERLYLLAAPSAERSDWIQAICLLAFPGQRKGSPGLEEKSGSPCMEENELYSSSTTGLCKEYMVTIRPTEASERCRLRGSYTLRTGVSALELWGGPEPGTQLYDWPYRFLRRFGRDKATFSFEAGRRCLSGEGNFEFETRHGNEIFQALEKVITVQKNATPSGPPSLPATGPMMPTVLPRPESPYSRPHDSLPSPSPGTLVPGMRPGAPEGEYAVPFDTVAHSLRKSFRGLLTGPPPHLPDPLYDSIQEDPGAPLPDHIYDEPEGVAALSLYDRTQRPSGETWREQATADGGPSSLQQDSSVPDWPQATEYDNVILKKGP
MGSDKIHHHHHHMVRQRMTGKERREQLISIGRAVFAERGFDGASVEEIAARANVSKPVVYEHFGGKEGLYAVVIDREMVKLEAMITGSLQHGRSRYRIEQAVLALLTYVEDETDGFLILVRDMRPGERRSYGTLLNDATTQVSHILGNAFTRSGLNAEYANLYGQALVGMVSMTAQWWLDERTPPKEEVAAHIVNLCWNGLTGMEADPKLTPISSAEGAIFGQEKESEA
MGSDKIHHHHHHMVTRITINRGKRCVDEADRCHNRWHPDIEPAAEVDPGDIVVIETRDALDGQITANPGVDDVASADLNVVHPLTGPVYVRGAKPGDLLVVEVLDIKAEPFGFTVAIPGFGFLRDLFDKPYKIRWRIEGGYAFSEDLPNVRIPGDPFLGVMGVAPSKELLKEIKEREDRLLKRGGFVLPPTPEGAVPPREPVASEGLRTIPPRENGGNLDVRHFSPGSKIYFPVFVEGALFSVGDAHYAQGDGEVCGTAIEMGATATLRFGVISEGAKKYGIRFPIFKPSESSVRRFTHSKHVAVTGVGVIDSLNESENATLSAKHALLNLINLLEKAGYTREQAYLLASVAADLRLSQLVDVPNFTVTAFLPLDIFIEPPEVLKKLAE
MGSDKIHHHHHHMVVIISAHNIATLEYQPMPKISDSGEPVEGVQAVALTLKILEALANARSTVGVTELSKQIGAGKARVYRHLQTLVTLGYALKDEESERYSTGPQLLRLSHTLSYRLDVVEAARLPARKLSDATGLTAVVARVEGDAIVVVHAEYSRADTMRSPRIGTTMQFHYTALGKIALAFGPAELRSRVLNEPLEQLTAYTITDRRDLMKKLEKIQELGWASSANEGMVGFNALAAPITDAHERLVGMICVVGSIKQLPATPPQNYLDALLSTADDISAYFGHVSRMPS
MGSDKIHHHHHHMWKELVESISNDMDNVDECFRPTHFWRMGAEYLQQDLDTYGITKFRSLPSTLGYFVPTYLFNGMITEPKKYAELASRCQDIVVTPKAKLFMTDFLSGESQARADFRVYLASQSNRAPYTEHFSESKVGEPVEHFEFEGRNYSRSSLNYLLGINFLKQHISDLSVKTVVEIGGGFGSLGEILLSDERNDTFYINVDIPPTCIFSTFYLQSVFGQSHVADYSVLSKQALVIDDLRSKHKAAIMCPWQLPSLEGKIDLFVNFISFQEMEPDIVENYLSEIDRLQSTYILLRNLREGKQLAHDDSQVGVKKAIKSDDYDKFLPDYELLATNVLPFGYQTIDGFHSELRLYRRKQPKLG
MGSDKIHHHHHHMWPNPALDTITHQWAQVFTNGGGLASLTDMIEQDVVVVGGGMVGAALAAGLGRAGLSVTVLENHMPQAFEASQPLDVRVSALSVASEALLERLDAWAGILSRRAVPYLGLETWEIESCITRFHASQIGADHLGHIVENRVVQLALWDLLSTLDSVTVKAPVNVMGFERLVDEDAICVALDSGERIKAKLLVGADGANSQVRAFAHIGVTGWDYAQSAMLINIATACEQQDVTWQQFTPQGPRSLLPLPGKNASLVWYDDASTIARLAKLNPNELADSIRAHFPARLDRDFRVLDKGHFKLTRRHAQRYFDANLVLIGDAAHTINPLAGQGVNLGFKDVDVLLDEIVSAVKKGENWHTKSVLERYQQRRWRDNQLMMSTMDAFYASFSNDLLPVKLLRNAALRLANVDGPIKRQVLKYAMGLK
MGSDKIHHHHHHMYEFNDTIRGTPKVTFNLKTTIGGKVLEDELNNGFGTFRTLTVSGRDVVDLEHQTTSVLGRNGEYFHNATVEVRKLEIKAKISGKDNKSMRLQYEKLNKLIVSHNQVFLSFSDEPDRNYLGIFKSKDVPEEVSNEQIIGLTFICYNPFKMSDVKTKKGTSIQNGGLFQTKPIITLNLSSPTKEIKLLHVESQKYIRLTGTYTTDEIKIDMATGKITQNGRNILGDLDMINSRYFELLPGNNTLQCANAAITAEFREVYL
MGSDKIHHHHHHMYEKYIVEGLSDREIAYLIGCGKATVVRARQKHGIYREDVKMCDDYTLDNISEDLRTFIDGLLLGDACITEKGNLLITQNKRYDWLEYVKHRFQQFGLNVYFHCYKYKRRTSEVIADLYVLSTSRYELFRQLRERWYPDGIKRIPNDLVINDEGLAQWYLGDGSLTKQKNGYKLELSTHGFTLDENKFLQQKLKLLYGFDFRISKKHQYRYLRLFKSKQVHAFCSIVEPFIPPSYRNKVRCLHDYQWLKSWDVI
MGSDKIHHHHHHMYGLIVNKASGNGKGQRTWKKVEYELQIRNTPYLVRFTSGSGHATTIVKELLTEGVKTIIAVGGDGTINEVANGLVNHRVPLGIIPAGSGNDFARCLNIPMHYEKALHRIFENKQKKVDLLHLGQRHCLTVTGIGFDGKIAKTVNEAIYKNWFNQFGFGGLSYVLSMLEVLKDYRPTNIQITVDGKELFFSGVWLVAVANSPNYGGGIRICPEASYDDGLLNICVVHGMSKWQLLRLFPKAYKGKHVVMEQHVTLLTGKDVYVQSDTPVLVQSDGEPIMESPVRLQIKKGALSVV
MGSDKIHHHHHHMYKMTDNELTQMGAVITTREIQQEPELWLETFKIYQEKKQAIDAFLGKIESEFNEPVRVVFTGAGSSAYVGDTAMPYLTENGDRNHFRFEAIDTTKIVSTPKQYLEKDTPTILVSFARSGNSPESVATVDIAEKYVKHLYQITITCAPEGKLALHAQEDDKNLVLMQPARSNDKGFAMTGSFSCMLLTTLLVFDAQHSDEQKETYVNAISKMGHEVIDRVDDIQKLVDTDFERIVYLGSGALGGLTREAQLKVLELTAGQKVTVFDTSMGFRHGPKSFVNSKTLLFDFVSNNAYTRQYDVDILEEVAGDEIAPVVMGIGVQSAHNFTGSNFNFANGDDSIPDGYMAFPDVMFAQTISLLSSIKVKNTPDTPSATGTVNRVVKGVTIHDFEG
